Laboratory results reported in the supplement of paper PMC10567573.

B1: CCND1 (parent)
chain: PEAEENKQIIRKHAQTFVALCATD

Variants of: B1
Assay: protein stability index of a GFP-peptide fusion (GPS, HEK-293T) (PSI 1-6); higher = more stable
Conditions: c terminus: a fixed tail appended
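Further: lentivirally expressed fusions sorted by FACS into six bins by GFP to DsRed ratio, PSI derived from sequencing read proportions per bin multiplied by bin number.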

Row | Variant | protein stability index
1 | PLAEENKQIIRKHAQTFVALCATD [E2L] | 2.08
2 | PSAEENKQIIRKHAQTFVALCATD [E2S] | 2.4
3 | PKAEENKQIIRKHAQTFVALCATD [E2K] | 2.73
4 | PWAEENKQIIRKHAQTFVALCATD [E2W] | 1.81
5 | PIAEENKQIIRKHAQTFVALCATD [E2I] | 2.27
6 | PPAEENKQIIRKHAQTFVALCATD [E2P] | 2.83
7 | PFAEENKQIIRKHAQTFVALCATD [E2F] | 2.14
8 | PDAEENKQIIRKHAQTFVALCATD [E2D] | 2.75
9 | PVAEENKQIIRKHAQTFVALCATD [E2V] | 2.8
10 | PCAEENKQIIRKHAQTFVALCATD [E2C] | 2.13
11 | PGAEENKQIIRKHAQTFVALCATD [E2G] | 2.92
12 | PYAEENKQIIRKHAQTFVALCATD [E2Y] | 2.69
13 | PTAEENKQIIRKHAQTFVALCATD [E2T] | 2.29
14 | PRAEENKQIIRKHAQTFVALCATD [E2R] | 1.87
15 | PHAEENKQIIRKHAQTFVALCATD [E2H] | 2.34
16 | PNAEENKQIIRKHAQTFVALCATD [E2N] | 2.32
17 | PMAEENKQIIRKHAQTFVALCATD [E2M] | 2.98
18 | PAAEENKQIIRKHAQTFVALCATD [E2A] | 2.54
19 | PQAEENKQIIRKHAQTFVALCATD [E2Q] | 2.53
20 | WEAEENKQIIRKHAQTFVALCATD [P1W] | 3.02
21 | YEAEENKQIIRKHAQTFVALCATD [P1Y] | 3.2
22 | PEAEMNKQIIRKHAQTFVALCATD [E5M] | 2.99
23 | PEAERNKQIIRKHAQTFVALCATD [E5R] | 1.93
24 | PEAELNKQIIRKHAQTFVALCATD [E5L] | 1.91

Row | Variant | protein stability index
25 | PEAETNKQIIRKHAQTFVALCATD [E5T] | 1.69
26 | PEAESNKQIIRKHAQTFVALCATD [E5S] | 1.79
27 | PEAECNKQIIRKHAQTFVALCATD [E5C] | 1.86
28 | PEAEVNKQIIRKHAQTFVALCATD [E5V] | 2.55
29 | PEAEKNKQIIRKHAQTFVALCATD [E5K] | 2.17
30 | PEAEWNKQIIRKHAQTFVALCATD [E5W] | 2.04
31 | PEAEPNKQIIRKHAQTFVALCATD [E5P] | 2.33
32 | PEAEHNKQIIRKHAQTFVALCATD [E5H] | 2.24
33 | PEAENNKQIIRKHAQTFVALCATD [E5N] | 2.25
34 | PEAEFNKQIIRKHAQTFVALCATD [E5F] | 2.12
35 | PEAEYNKQIIRKHAQTFVALCATD [E5Y] | 2.21
36 | PEAEANKQIIRKHAQTFVALCATD [E5A] | 2.05
37 | PEAEGNKQIIRKHAQTFVALCATD [E5G] | 2.47
38 | PEAEINKQIIRKHAQTFVALCATD [E5I] | 2.05
39 | PEAEDNKQIIRKHAQTFVALCATD [E5D] | 2.93
40 | PEAEQNKQIIRKHAQTFVALCATD [E5Q] | 2.33
41 | PEAEEHKQIIRKHAQTFVALCATD [N6H] | 3.04
42 | PEAEELKQIIRKHAQTFVALCATD [N6L] | 1.88
43 | PEAEEAKQIIRKHAQTFVALCATD [N6A] | 2.14
44 | PEAEEFKQIIRKHAQTFVALCATD [N6F] | 2.17
45 | PEAEEEKQIIRKHAQTFVALCATD [N6E] | 2.92
46 | PEAEEGKQIIRKHAQTFVALCATD [N6G] | 2.35
47 | PEAEEIKQIIRKHAQTFVALCATD [N6I] | 2.26
48 | PEAEEPKQIIRKHAQTFVALCATD [N6P] | 2.12

Row | Variant | protein stability index
49 | PEAEEKKQIIRKHAQTFVALCATD [N6K] | 2.38
50 | PEAEESKQIIRKHAQTFVALCATD [N6S] | 2.12
51 | PEAEEQKQIIRKHAQTFVALCATD [N6Q] | 2.59
52 | PEAEETKQIIRKHAQTFVALCATD [N6T] | 2
53 | PEAEEMKQIIRKHAQTFVALCATD [N6M] | 2.39
54 | PEAEERKQIIRKHAQTFVALCATD [N6R] | 2.22
55 | PEAEEDKQIIRKHAQTFVALCATD [N6D] | 2.79
56 | PEAEECKQIIRKHAQTFVALCATD [N6C] | 1.93
57 | PEAWENKQIIRKHAQTFVALCATD [E4W] | 1.95
58 | PEAFENKQIIRKHAQTFVALCATD [E4F] | 1.92
59 | PEASENKQIIRKHAQTFVALCATD [E4S] | 2.21
60 | PEATENKQIIRKHAQTFVALCATD [E4T] | 2.1
61 | PEAVENKQIIRKHAQTFVALCATD [E4V] | 2.38
62 | PEAAENKQIIRKHAQTFVALCATD [E4A] | 2.47
63 | PEAHENKQIIRKHAQTFVALCATD [E4H] | 2.67
64 | PEAGENKQIIRKHAQTFVALCATD [E4G] | 2.42
65 | PEAYENKQIIRKHAQTFVALCATD [E4Y] | 2.08
66 | PEAPENKQIIRKHAQTFVALCATD [E4P] | 3.27
67 | PEAIENKQIIRKHAQTFVALCATD [E4I] | 2.2
68 | PEADENKQIIRKHAQTFVALCATD [E4D] | 2.64
69 | PEAQENKQIIRKHAQTFVALCATD [E4Q] | 2.39
70 | PEANENKQIIRKHAQTFVALCATD [E4N] | 2.36
71 | PEACENKQIIRKHAQTFVALCATD [E4C] | 3.62
72 | PEALENKQIIRKHAQTFVALCATD [E4L] | 2.37

Row | Variant | protein stability index
73 | PEAMENKQIIRKHAQTFVALCATD [E4M] | 2.23
74 | PEARENKQIIRKHAQTFVALCATD [E4R] | 2.33
75 | PEAKENKQIIRKHAQTFVALCATD [E4K] | 2.04
76 | PEQEENKQIIRKHAQTFVALCATD [A3Q] | 2.86
77 | PEHEENKQIIRKHAQTFVALCATD [A3H] | 2.02
78 | PESEENKQIIRKHAQTFVALCATD [A3S] | 2.46
79 | PEGEENKQIIRKHAQTFVALCATD [A3G] | 2.8
80 | PEVEENKQIIRKHAQTFVALCATD [A3V] | 3
81 | PEMEENKQIIRKHAQTFVALCATD [A3M] | 2.81
82 | PELEENKQIIRKHAQTFVALCATD [A3L] | 2.89
83 | PEWEENKQIIRKHAQTFVALCATD [A3W] | 2.85
84 | PEPEENKQIIRKHAQTFVALCATD [A3P] | 2.43
85 | PEYEENKQIIRKHAQTFVALCATD [A3Y] | 2.81
86 | PENEENKQIIRKHAQTFVALCATD [A3N] | 3.15
87 | PEEEENKQIIRKHAQTFVALCATD [A3E] | 3.02
88 | PETEENKQIIRKHAQTFVALCATD [A3T] | 2.15
89 | PEFEENKQIIRKHAQTFVALCATD [A3F] | 2.71
90 | PEIEENKQIIRKHAQTFVALCATD [A3I] | 2.93
91 | PECEENKQIIRKHAQTFVALCATD [A3C] | 2.31
92 | PEREENKQIIRKHAQTFVALCATD [A3R] | 3.26
93 | PEDEENKQIIRKHAQTFVALCATD [A3D] | 3.27
94 | PEKEENKQIIRKHAQTFVALCATD [A3K] | 2.8
